Patent publication US20040142357A1 (BETH ISRAEL DEACONESS MEDICAL CENTER, published 2004)
Each block holds one binder with its values, some of them ahead of it.

Columns and labels:
[1] = target: T1, GST-Pin2 (human, UniProt P54274 2-439); assay: GST pulldown from HeLa lysates, immunoblot with anti-GFP
T1 construct: Produced as described in Shen et al., 1997; also called GST-Pin2 beads (Pin2); not shown: glutathione-S-transferase (GST) tag
T1 sequence: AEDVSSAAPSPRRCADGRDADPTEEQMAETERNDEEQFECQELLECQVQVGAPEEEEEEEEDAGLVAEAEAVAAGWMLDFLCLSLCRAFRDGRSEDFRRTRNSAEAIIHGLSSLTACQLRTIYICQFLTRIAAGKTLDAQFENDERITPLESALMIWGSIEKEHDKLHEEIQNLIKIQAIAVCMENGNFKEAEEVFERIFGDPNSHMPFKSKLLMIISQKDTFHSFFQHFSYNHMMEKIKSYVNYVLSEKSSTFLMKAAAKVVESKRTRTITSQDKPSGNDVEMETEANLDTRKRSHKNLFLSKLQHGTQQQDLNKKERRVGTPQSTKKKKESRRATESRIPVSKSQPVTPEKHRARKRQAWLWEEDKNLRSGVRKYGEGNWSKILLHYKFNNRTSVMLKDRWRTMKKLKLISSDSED
Experimental: (§1) GST pulldown, immunoprecipitation and immunoblotting analysis were performed as described (Lu et al., 1999; Shen et al., 1998). Briefly, relevant proteins were expressed in HeLa or HT1080 cells by transient transfection, or translated in vitro using the TNT coupled transcription/translation kit (Promega) in the presence of [³⁵S]-Met, followed by lysis or dilution in a buffer containing 50 mM HEPES, pH 7.5, 150 mM NaCl, 100 mM NaF, 1 mM sodium orthovanadate, 10% glycerol, 1% Triton X100, 10 μg/ml aprotinin, 10 μg/ml leupeptin, 50 μg/ml phenylmethylsulfonyl fluoride and 1 mM DTT. The cellular supernatants were incubated with 1 μM GST or GST fusion proteins for 1 hr at 4° C. and 15 μl of glutathione agarose beads were then added, followed by further incubation for 2 h at 4° C. The precipitated proteins were washed 4 times in the same buffer and subjected to immunoblotting analysis. Other antibodies used for immunoprecipitation and immunoblotting analysis include anti-Pin2/TRF1 (Shen et al., 1997) and anti-hTERT antibodies (Novus). Membranes containing RNAs isolated from different human tissues (Clontech) were hybridized to the C-terminal coding sequence of PinX1 and then stripped, followed by reprobing with the house-keeping gene GAPDH for loading control.
(§2) To map the region in PinX1 that interacts with Pin2, we expressed different PinX1 fragments in HeLa cells as GFP fusion proteins (FIG. 3E), and then subjected them to GST pulldown experiments with GST-Pin2.

[2] = target: T2, GST (glutathione-S-transferase alone, on glutathione beads) (UniProt P08515 1-218 = GST); assay: as above
T2 construct: Control protein; also called GST tag
T2 sequence (P08515 whole entry): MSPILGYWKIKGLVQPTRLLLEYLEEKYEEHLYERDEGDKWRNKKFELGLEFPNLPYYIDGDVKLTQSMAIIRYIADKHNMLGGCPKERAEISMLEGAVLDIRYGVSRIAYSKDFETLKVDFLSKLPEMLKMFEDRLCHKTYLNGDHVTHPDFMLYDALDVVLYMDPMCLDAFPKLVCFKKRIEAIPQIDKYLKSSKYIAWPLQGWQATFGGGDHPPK
Experimental: as §1, §2

[3] = target: telomerase of HT1080 cells (telomerase-containing fraction, or cellular telomerase in stable HT1080 lines) (human, UniProt O14746 1-1132, limits assumed); assay: cell-based or functional assay
Chain of telomerase of HT1080 cells (telomerase-containing fraction, or cellular telomerase in stable HT1080 lines) (O14746 whole entry): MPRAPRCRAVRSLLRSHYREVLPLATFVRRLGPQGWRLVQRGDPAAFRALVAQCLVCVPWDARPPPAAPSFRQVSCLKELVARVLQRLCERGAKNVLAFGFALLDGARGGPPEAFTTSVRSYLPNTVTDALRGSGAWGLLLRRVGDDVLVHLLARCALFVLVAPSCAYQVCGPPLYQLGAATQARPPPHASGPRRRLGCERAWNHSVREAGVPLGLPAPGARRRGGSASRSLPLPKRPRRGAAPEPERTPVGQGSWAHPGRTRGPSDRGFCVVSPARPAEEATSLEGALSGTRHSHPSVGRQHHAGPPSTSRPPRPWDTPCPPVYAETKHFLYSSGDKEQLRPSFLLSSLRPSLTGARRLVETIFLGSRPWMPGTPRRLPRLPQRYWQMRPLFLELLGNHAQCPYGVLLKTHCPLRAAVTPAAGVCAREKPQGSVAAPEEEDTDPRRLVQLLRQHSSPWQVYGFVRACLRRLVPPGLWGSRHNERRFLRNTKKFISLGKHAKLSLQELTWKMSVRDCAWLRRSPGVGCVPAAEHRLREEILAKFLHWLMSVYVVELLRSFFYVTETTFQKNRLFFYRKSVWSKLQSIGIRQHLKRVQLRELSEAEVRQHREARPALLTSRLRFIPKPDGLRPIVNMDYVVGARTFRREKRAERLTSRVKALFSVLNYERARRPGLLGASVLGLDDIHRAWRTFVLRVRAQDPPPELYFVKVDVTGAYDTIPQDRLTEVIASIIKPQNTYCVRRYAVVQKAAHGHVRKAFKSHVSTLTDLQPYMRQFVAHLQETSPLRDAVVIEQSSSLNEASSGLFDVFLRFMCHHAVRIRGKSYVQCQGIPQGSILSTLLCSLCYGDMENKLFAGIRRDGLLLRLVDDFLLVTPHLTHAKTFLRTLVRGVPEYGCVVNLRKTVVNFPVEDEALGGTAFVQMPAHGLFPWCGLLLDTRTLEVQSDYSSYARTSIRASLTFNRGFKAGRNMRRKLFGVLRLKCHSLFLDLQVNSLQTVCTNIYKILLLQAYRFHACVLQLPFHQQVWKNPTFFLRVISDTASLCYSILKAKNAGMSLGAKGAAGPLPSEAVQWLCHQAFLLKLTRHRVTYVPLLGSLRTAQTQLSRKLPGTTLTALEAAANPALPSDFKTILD

[4] = target: T2, GST (glutathione-S-transferase alone, …); assay: GST pulldown from HeLa lysates, immunoblot with anti-HA
Experimental: as §1, with “control. […]” for “control.”

B3: GST-PinX1-C (GST fusion of the C-terminal 74 amino acid fragment of PinX1, the telomerase inhibitory domain TID) (other, not shown: a dimerising Fc or GST)
chain: CAPAEKQLRGPCWDQSSKASAQDAGDHVQPPEGRDFTLKPKKRRGKKKLQKPVEIAEDATLEETLVKKKKKKDSK
IC50 of inhibition of telomerase activity in vitro (TRAP assay) [3]: ~50 nM

B5: GST-PinX1 (N-terminal GST fusion of full length PinX1) (other, not shown: a dimerising Fc or GST)
chain: MSMLAERRRKQKWAVDPQNTAWSNDDSKFGQRMLEKMGWSKGKGLGAQEQGATDHIKVQVKNNHLGLGATINNEDNWIAHQDDFNQLLAELNTCHGQETTDSSDKKEKKSFSLEEKSKISKNRVHYMKFTKGKDLSSRSKTDLDCIFGKRQSKKTPEGDASPSTPEENETTTTSAFTIQEYFAKPVAALKNKPQVPVPGSDISETQVERKRGKKRNKEATGKDVESYLQPKAKRHTEGKPERAEAQERVAKKKCAPAEKQLRGPCWDQSSKASAQDAGDHVQPPEGRDFTLKPKKRRGKKKLQKPVEIAEDATLEETLVKKKKKKDSK
IC50 of inhibition of telomerase activity in vitro (TRAP assay) [3]: ~50 nM

B7: HA-PinX1 (PinX1 with an N-terminal HA epitope tag) (other, not shown: small tags and cut ends)
chain: B5 chain
notes: Expressed in HeLa or HT1080 cells; also called transfected PinX1 protein; 50 kDa HA-PinX1 protein
fold decrease in telomerase activity in stable HT1080 cells (TRAP assay) [3]: ~5 fold
binding result [4]: no binding (tested: 1 µM)

More lines, now with the values ahead:

binding result [1]: no binding (tested: 1 µM)
binding result [2]: no binding (tested: 1 µM)
B1: GFP fusion of the N-terminal 142 amino acid fragment of PinX1 (other)
chain: MSMLAERRRKQKWAVDPQNTAWSNDDSKFGQRMLEKMGWSKGKGLGAQEQGATDHIKVQVKNNHLGLGATINNEDNWIAHQDDFNQLLAELNTCHGQETTDSSDKKEKKSFSLEEKSKISKNRVHYMKFTKGKDLSSRSKTD
notes: Expressed in HeLa cells; also called GFP-PinX1-N; PinX1-N; not shown: GFP fusion partner

binding result [2]: no binding (tested: 1 µM)
B2: GFP fusion of the PinX1 C-terminal 142-328 amino acid fragment (other)
chain: DLDCIFGKRQSKKTPEGDASPSTPEENETTTTSAFTIQEYFAKPVAALKNKPQVPVPGSDISETQVERKRGKKRNKEATGKDVESYLQPKAKRHTEGKPERAEAQERVAKKKCAPAEKQLRGPCWDQSSKASAQDAGDHVQPPEGRDFTLKPKKRRGKKKLQKPVEIAEDATLEETLVKKKKKKDSK
notes: Expressed in HeLa cells; not shown: GFP fusion partner

binding result [2]: no binding (tested: 1 µM)
B4: GFP fusion of the PinX1 254-328 amino acid fragment (other)
chain: B3 chain
notes: Expressed in HeLa cells; also called GFP-PinX1-C; C-terminal 74 amino acid fragment; not shown: GFP fusion partner

binding result [2]: no binding (tested: 1 µM)
B6: GFP-PinX1 (full length PinX1 as a GFP fusion protein) (other)
chain: B5 chain
notes: as for B2
